From patent US20200360435A1 (published 2020)
Where a chain is given by its changes, count along the chain named.

B1: TCR7-2 (TCR, V domains shown)
Valpha: KQEVTQIPAALSVPEGENLVLNCSFTDSAIYNLQWFRQDPGKGLTSLLLIQSSQREQTSGRLNASLDKSSGRSTLYIAASQPGDSATYLCAVSRGNARLMFGDGTQLVVKP
Vbeta: DTGVSQDPRHKITKRGQNVTFRCDPISEHNRLYWYRQTLGQGPEFLTYFQNEAQLEKSRLLSDRFSAERPKGSFSTLEIQRTEQGDSAMYLCASAEDRGEKLFFGSGTQLSVL
B2: TCR7-3 (TCR, V domains shown)
Valpha: B1 Valpha with A97N, M100A, D103K, T105N, L107V, K110I
Vbeta: B1 Vbeta with A95S, E96P, G99A, E100D, K101T, L102Q, F103Y, S106P, Q109R, S111T

Target: HTLV-1 Tax peptide on HLA-A*24:02 (human)
Experiment: multimer staining

| Binder | binding result |
| --- | --- |
| B1 | recognises |
| B2 | recognises |
